Data taken from US20110236427.

System: GST-NR2F6 fusion protein, full-length, wild-type
Sequence (chain, as listed by the source): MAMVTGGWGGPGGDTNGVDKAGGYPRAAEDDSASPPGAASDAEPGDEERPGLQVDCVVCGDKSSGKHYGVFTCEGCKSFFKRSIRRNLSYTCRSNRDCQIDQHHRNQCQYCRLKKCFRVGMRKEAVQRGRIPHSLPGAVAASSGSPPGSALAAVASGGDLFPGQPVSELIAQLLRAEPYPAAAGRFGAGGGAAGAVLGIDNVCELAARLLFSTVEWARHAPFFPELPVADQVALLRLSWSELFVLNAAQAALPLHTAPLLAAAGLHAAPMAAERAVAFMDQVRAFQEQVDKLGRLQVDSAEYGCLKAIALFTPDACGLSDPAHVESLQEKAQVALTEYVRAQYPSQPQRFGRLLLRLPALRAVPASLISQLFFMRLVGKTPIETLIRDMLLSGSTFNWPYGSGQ

B1: recombinant PKCzeta (enzyme, UniProt Q05513 1-592, looked up, species assumed)
Protein kinase C zeta type: MPSRTGPKMEGSGGRVRLKAHYGGDIFITSVDAATTFEELCEEVRDMCRLHQQHPLTLKWVDSEGDPCTVSSQMELEEAFRLARQCRDEGLIIHVFPSTPEQPGLPCPGEDKSIYRRGARRWRKLYRANGHLFQAKRFNRRAYCGQCSERIWGLARQGYRCINCKLLVHKRCHGLVPLTCRKHMDSVMPSQEPPVDDKNEDADLPSEETDGIAYISSSRKHDSIKDDSEDLKPVIDGMDGIKISQGLGLQDFDLIRVIGRGSYAKVLLVRLKKNDQIYAMKVVKKELVHDDEDIDWVQTEKHVFEQASSNPFLVGLHSCFQTTSRLFLVIEYVNGGDLMFHMQRQRKLPEEHARFYAAEICIALNFLHERGIIYRDLKLDNVLLDADGHIKLTDYGMCKEGLGPGDTTSTFCGTPNYIAPEILRGEEYGFSVDWWALGVLMFEMMAGRSPFDIITDNPDMNTEDYLFQVILEKPIRIPRFLSVKASHVLKGFLNKDPKERLGCRPQTGFSDIKSHAFFRSIDWDLLEKKQALPPFQPQITDDYGLDNFDTQFTSEPVQLTPDDEDAIKRIDQSEFEGFEYINPLLLSTEESV
phosphorylation (32P incorporation), in vitro protein kinase assay: (but not PKCzeta or PKA)
